Here are results for three substances from article PMC6218510, “Step Sizes and Rate Constants of Single-headed Cytoplasmic Dynein Measured with Optical Tweezers” (Scientific Reports, 2018).

For orientation: Km means the concentration of substrate that gives half-maximal velocity.

Series [1] has as its system T1, Nc1ncnc2c1ncn2[C@@H]1O[C@H](COP(=O)(O)OP(=O)(O)OP(=O)(O)O)[C@@H](O)[C@H]1O.
T1 construct: motor domain with short tail Gly1288-Glu4646 (384 kDa), N-terminal FLAG tag and BCCP kept; Sf9 baculovirus; monomer
Kind of series: purified protein. The settings on record: basal, no microtubules, 25 °C. Type of series: biochemical, Homo sapiens.

For series [2] the test system is unchanged. Kind of series: optical tweezers, mean displacement of single-headed dynein against ATP. Type of series: biochemical, Homo sapiens. The settings on record: with microtubules (paclitaxel), pH 7.2, 25 mM PIPES, 25 mM K-acetate, 2 mM MgCl2, 25 °C, half of power stroke size.
In series [3] the target is microtubules (polymerized tubulin). Kind of series: optical tweezers (single-trap assay) + other: in vitro motility assay; duty ratio calculated from the velocity of a single GST-D384 molecule at no load (387 nm/s) and the microtubule gliding velocity (481 nm/s) at 1 mM ATP.
Sequence of microtubules (polymerized tubulin) (chain, as listed by the source, chain 1 of 2): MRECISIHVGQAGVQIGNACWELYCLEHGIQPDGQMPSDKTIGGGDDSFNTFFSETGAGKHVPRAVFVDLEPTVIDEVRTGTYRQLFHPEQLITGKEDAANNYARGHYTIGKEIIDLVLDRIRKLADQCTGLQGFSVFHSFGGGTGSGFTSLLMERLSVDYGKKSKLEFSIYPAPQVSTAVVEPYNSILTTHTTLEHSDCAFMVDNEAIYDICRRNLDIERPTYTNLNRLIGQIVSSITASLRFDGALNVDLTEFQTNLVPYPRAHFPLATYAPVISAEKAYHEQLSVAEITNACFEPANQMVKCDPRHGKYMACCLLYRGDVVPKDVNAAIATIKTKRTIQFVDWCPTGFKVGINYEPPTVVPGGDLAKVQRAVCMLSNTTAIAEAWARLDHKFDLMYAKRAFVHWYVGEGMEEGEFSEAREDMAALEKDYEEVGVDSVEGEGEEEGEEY
Sequence of microtubules (polymerized tubulin) (chain, as listed by the source, chain 2 of 2): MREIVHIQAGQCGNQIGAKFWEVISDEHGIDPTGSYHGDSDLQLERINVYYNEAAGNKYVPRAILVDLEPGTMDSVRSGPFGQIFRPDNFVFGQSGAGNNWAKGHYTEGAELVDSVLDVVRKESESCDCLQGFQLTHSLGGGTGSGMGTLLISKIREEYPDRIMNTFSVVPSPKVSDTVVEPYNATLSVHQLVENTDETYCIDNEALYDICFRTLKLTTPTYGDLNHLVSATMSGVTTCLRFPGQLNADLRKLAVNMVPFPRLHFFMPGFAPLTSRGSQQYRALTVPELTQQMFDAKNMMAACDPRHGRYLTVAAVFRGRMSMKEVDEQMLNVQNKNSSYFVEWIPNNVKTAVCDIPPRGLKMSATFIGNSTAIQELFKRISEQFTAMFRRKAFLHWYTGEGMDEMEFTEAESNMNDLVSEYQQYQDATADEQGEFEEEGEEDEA
Series [4] shares this target. Kind of series: optical tweezers (single-trap assay); single GST-D384 molecules on a trapped bead, polarity-marked microtubules fixed on glass (amino-silane, glutaraldehyde), trap stiffness 16 fN/nm, 1 mM ATP; duty ratio calculated from the decay of peak force/displacement (run length), (1-rd)^2 = 0.26.
For series [5] the target is unchanged.

As to “D384 (single-headed human cytoplasmic dynein-1 motor domain) (Homo sapiens)”, the Km in series [1] was found to be 31 ± 4 µM. The same substance yielded a K0.5 in series [2] of 17.6 ± 0.5 µM.

In the case of “artificially dimerized dynein construct GST-D384, Q14204 1288-4646”, the duty ratio rd (fraction of time that each head spends attached to a microtubule) in series [3] is 0.59; in series [4] it was 0.49.

As for “human cytoplasmic dynein monomer construct D384, Q14204 1288-4646”, in series [5], the Km^MT: Michaelis-Menten constant for microtubules of the microtubule-stimulated ATPase of D384 (EnzChek phosphate assay, 35 nM dynein, 0-25 μM microtubules, 1 mM ATP, 25 °C) was determined as 50 µM.
